Reference: the DeepSol protein solubility set

Assay: soluble on expression in E. coli; label from the status in PepcDB or PDB records

Sequence | soluble on expression in E. coli
GSHMSGEDAEVRAVSEDVSNGSSGSPSPGDTLPWNLGKTQRSRRSGGGAGSNGSVLDPAERAVIRIADERDRVQKKTFTKWVNKHLIKAQRHISDLYEDLRDGHNLISLLEVLSGDSLPREKGRMRFHKLQNVQIALDYLRHRQVKLVNIRNDDIADGNPKLTLGLIWTIILHFQISDIQVSGQSEDMTAKEKLLLWSQRMVEGYQGLRCDNFTSSWRDGRLFNAIIHRHKPLLIDMNKVYRQTNLENLDQAFSVAERDLGVTRLLDPEDVDVPQPDEKSIITYVSSLYDAMPRVP | soluble
MSLTTIKTSNLGFPRIDLNREWKKALEAYWKGSTDKDTFLKQIDELFLSAVKTQIDQQIDVVPVSDFTQYDHVLDTAVSFNWIPKRFRHLTDATDTYFAIARGIKDAVSSEMTKWFNTNYHYIVPEYDESIEFRLTRNKQLEDYRRIKQEYGVETKPVIVGPYTFVTLAKGYEPSEAKAIQKRLVPLYVQLLKELEEEGVKWVQIDEPALVTASSEDVRGAKELFESITSELSSLNVLLQTYFDSVDAYEELISYPVQGIGLDFVHDKGRNLEQLKTHGFPTDKVLAAGVIDGRNIWKADLEESLDAVLDVLSIAKVDELWIQPSSSLLDVPVAKHPDEHLEKDLLNGLSYAKEKLAELTALKEGLVSGKAAISEEIQQAKADIQALKQFATGANSEQKKELEQLTDKDFKRPIPFEERLALQNESLGLPLLPTTTIGSFPQSAEVRRARQKWRKAEWSDEQYQNFINAETKRWIDIQEELELDVLVHGEFERTDMVEYFGEKLAGFAFTKYAWVQSYGSRCVRPPVIYGDVEFIEPMTVKDTVYAQSLTSKHVKGMLTGPVTILNWSFPRNDISRKEIAFQIGLALRKEVKALEDAGIQIIQVDEPALREGLPLKTRDWDEYLTWAAEAFRLTTSSVKNETQIHTHMCYSNFEDIVDTINDLDADVITIEHSRSHGGFLDYLKNHPYLKGLGLGVYDIHSPRVPSTEEMYNIIVDALAVCPTDRFWVNPDCGLKTRQQEETVAALKNMVEAAKQARAQQTQLVEGGSHHHHHH | soluble
MPSLFSEDKLPALTYHCSVELNGNIYIFGGLMPCYSYEEDAPMLNDFFVDGIKNLPPPLLPQVINNPSMVNNPHLYVASIPSCRFSKPKMGGYIPPPLLCVQGSKLTDRHIFFYGGFEIRTETRGDENGKYHLKKRLYVNNTGYILDIMSFKF | not soluble
MLGAIIGDLVAWTWERDQSLFYQRLIAPKANISEVGLAVLGVTEPMLRGSSEVEWESLYLHIREIIQRDRITDISPDFNDWTEAGHQAVIPKEVKSVMHLAVSIVGGWCDAPLETTLAYSRRFHGGKEEYYLTQIAEIIYRLRQGATKQEAMEDIHYIKNWKPQGKVSLLGYAHHAWQCFLQSWDFTSALHNAMRCSYGDKHLLGALTGAIAEAMYSCEYGFIKEKYGKGSDTQFMLSLPKELSGLYRVELGLIESNKELLRTFFPKNRALTNVEVWQWFDLPNIVAHKPLSEREYQRIRLSHDTGWDARYGIYWDDGWYYVYCSGFLLNRFRVEEMQDHTYRITRIQYCTQHEEGKAYNALIKALSLDGLDMSAYSQYKD | not soluble
MSLRAQSTNTIGVLVSRISNPFFAQLFDALERELNGYGFQVMVMQTHDDALAEQHFLDKLKQQQVDGVILASIENQQLVAQLSATYANQMVLLNEEATDIGIPMISLNHYQATKDALAYLYHQGHRRIAYATGGDFPSTHHGRSRTQAYLDFCEEQQLVVNNNWVFAQQHTIADGQALGKQLASLNPSDRPTAVFTNSDEVAVGVIDELQQQHFRVPDDMAVMGYDDQPFAAVAQVPLTTVRQPVAAMAQLAVDQLLHHLGRLQRPELAIDLSLDLIKRKSAEGHHHHHH | soluble
EACGYSDRVLQLTLGNSTITTQEAANSVVAYGRWPEYLRDSEANPVDQPTEPDVAACRFYTLDTVSWTKESRGWWWKLPDALRDMGLFGQNMYYHYLGRSGYTVHVQCNASKFHQGALGVFAVPEMCLAGDSNTTTMHTSYQNANPGEKGGTFTGTFTPDNNQTSPARRFCPVDYLLGNGTLLGNAFVFPHQIINLRTNNCATLVLPYVNSLSIDSMVKHNNWGIAILPLAPLNFASESSPEIPITLTIAPMCCEFNGLRNITLPRLQ | soluble
RLCKALYSFQARQDDELNLEKGDIVIIHEKKEEGWWFGSLNGKKGHFPAAYVEELPSNAGNTATKA | soluble
MSSNYATPLDDEVFPLSFANYQFTEHVSLGEHYSLNTSEDAKYNNLNGPFVVPRDTGKFDLNTSSASDETVFSLDNPQENNYKHQAMNNVQDCRMAVAAKTTQSCDKLTDLYANAAQQNYRLWLSSF | not soluble
